Data taken from patent US11667697.

Experiments:
[1] = molecular target: MPXV ortholog of B5 (monkeypox virus); experiment: lysate ELISA
[2] = molecular target: CPXV ortholog of B5 (cowpox virus); experiment: lysate ELISA
[3] = molecular target: CPXV ortholog of B5 (cowpox virus); experiment: cell-based or functional assay
[4] = molecular target: VARV ortholog of B5 (variola virus); experiment: purified antigen ELISA
[5] = molecular target: VACV A21 protein (vaccinia virus); experiment: purified antigen ELISA
[6] = molecular target: MPXV ortholog of A33 (monkeypox virus); experiment: lysate ELISA
[7] = molecular target: CPXV ortholog of A33 (cowpox virus); experiment: lysate ELISA
[8] = molecular target: MPXV ortholog of A33 (monkeypox virus); experiment: cell-based or functional assay
[9] = molecular target: VARV ortholog of A33 (variola virus); experiment: purified antigen ELISA
[10] = molecular target: MPXV ortholog of A25 (monkeypox virus); experiment: lysate ELISA
[11] = molecular target: VACV A25 protein (vaccinia virus); experiment: lysate ELISA
[12] = molecular target: CPXV ortholog of A25 (cowpox virus); experiment: lysate ELISA
[13] = molecular target: CPXV ortholog of A27 (cowpox virus); experiment: lysate ELISA
[14] = molecular target: MPXV ortholog of the A27 VACV protein (monkeypox virus); experiment: lysate ELISA
[15] = molecular target: CPXV ortholog of A27 (cowpox virus); experiment: cell-based or functional assay
[16] = molecular target: MPXV ortholog of the A27 VACV protein (monkeypox virus); experiment: cell-based or functional assay
[17] = molecular target: VARV ortholog of A27 (variola virus); experiment: purified antigen ELISA
[18] = molecular target: MPXV ortholog of the A27 VACV protein (monkeypox virus); experiment: purified antigen ELISA
[19] = molecular target: CPXV ortholog of H5 (cowpox virus); experiment: lysate ELISA
[20] = molecular target: MPXV ortholog of H5 (monkeypox virus); experiment: lysate ELISA
[21] = molecular target: VACV H5 protein (vaccinia virus); experiment: lysate ELISA
[22] = molecular target: CPXV ortholog of L1 (cowpox virus); experiment: lysate ELISA
[23] = molecular target: MPXV ortholog of L1 (monkeypox virus); experiment: lysate ELISA
[24] = molecular target: CPXV ortholog of L1 (cowpox virus); experiment: cell-based or functional assay
[25] = molecular target: MPXV ortholog of L1 (monkeypox virus); experiment: cell-based or functional assay
[26] = molecular target: VARV ortholog of L1 (variola virus); experiment: purified antigen ELISA

B1: MPXV-66 (antibody, V domains shown)
VH: QVQLQQWGAGLLKPSETLSLTCAVHGGSFSGYFWSWIRQPPGKGLEWIGEMNHSGSTNYNPSLKSRVTISVDTSKKQFSLKLNSVTAADTAVYYCARTARTVRYFENWGQGTLVTVSS
VL: DIVMTQSPDSLAVSLGERATINCKSSQTVLYNSNNYSYLTWYQQKPGQPPRVLIYWASTRESGVPDRFSGSGSGTDFTLTISSLQAENVALYYCQQYYSTPWTFGQGTKVDIK
- EC50 [1]: > 16 µg/mL
- EC50 [2]: > 29 µg/mL
- PRNT Emax, CPXV EV+C' [3]: 86%
- PRNT IC50, CPXV EV+C' [3]: 0.03 µg/mL
- EC50 [4]: 0.16 µg/mL

B2: VACV-318 (antibody, V domains shown)
VH: SYELTQPPSVSVSPGQTARITCSGDELPKRYAYWYQQKSGQAPVLVIYEDTKRPSGIPERFSGSSSGTVATLTISGAQVDDEADYYCYSTDSTSNHKRVFGGGTQVTVL
V domain: QVQLVESGGGVVQPGRSLRLSCTASGFNFSYYGIHWVRQAPGKGLQWVALISYDGSDKYYADSVKGRFTVSRDYSKNTLFLQMNSLRGDDTAVYYCQMVKVPFYFWGQGTMVTLSS
- EC50 [5]: 1.3 µg/mL

B3: VACV-22 (antibody, V domains shown)
VH: QVQLVESGGGVVQPGRSLRLSCAASGFTFSNSGMHWVRQAPGKGLEWVAVIWFDGTNKYYADSVKGRFTISRDNSKNTLYLQMNSLRAEDTAVYYCARVPCGGDCYSGYLQHWGQGTLVTVSS
VL: AIVMTQSPATLSVSPGERATLSCRASQSVSSTLAWYQQKPGQAPRLLIYGASTKATGIPARFSGSGSGTEFTLTISSLQSEDFAVYYCQHYNNWPPLLTFGGGTKVDIK
- EC50 [6]: > 0.006 µg/mL
- EC50 [7]: > 0.009 µg/mL
- PRNT Emax, MPXV EV+C' [8]: 72%
- PRNT IC50, MPXV EV+C' [8]: 50 µg/mL
- EC50 [9]: 0.02 µg/mL

B4: MPXV-51 (antibody, V domains shown)
VH: QLQLQESGPGLVKPSETLSLSCTVSGGSINSRTYYWGWIRQPPGKGPEWIGTVFHNVSTLYTSSLRSRVTISVDTSKNRFSLKLTSVTAADTAVYFCGRLTPRNLFRGTLVRWVDPWGQGILVTVSS
VL: EIVLAQSPGTLSLSPGERATLSCRASHNLNSNYLAWYQQKPGQAPRLLIYGASSRATGIPDRFTGSGSGTDFTLTISRLEPEDFAVYYCQQYAGSLTFGGGTKVDIK
- EC50 [6]: 0.025 µg/mL
- EC50 [7]: 0.024 µg/mL
- PRNT Emax, MPXV EV+C' [8]: 77%
- PRNT IC50, MPXV EV+C' [8]: 0.8 µg/mL
- EC50 [9]: 0.04 µg/mL

B5: MPXV-9 (antibody, V domains shown)
VH: QVQLVQSGAEVKKPGASVKVSCKASGYNLTTYDIVWVRQAAGQGLEWMGWMNPKSGNTAYAERFQGRVTMTRNTSISTAYMELSSLRSEDTAVYYCARSLDSLRFLEWFHQNYYYFMDVWGKGTTVT
VL: EIVLTQSPATLSLSPGERATLSCRASQTIGGYLAWYQQIPGQAPRLLIYDASNRATGIPARFSGSGSGTDFTLTISSLEPEDFAVYYCQLRSTFGGGTKVDIK
- EC50 [10]: 0.107 µg/mL
- EC50 [11]: 0.022 µg/mL
- EC50 [12]: 0.876 µg/mL

B6: VACV-301 (antibody, V domains shown)
VH: EVQLLESGGGLVQPGGSLRLSCAASGFSFSSYAMSWVRQAPGKGLEWVSGIGNSGDRTFYADSAKGRFTIFRDNSNNRLYLQMNSLRAADTAVYYCAKWGRFESGAFWGQGVLVTVSS
VL: SYELTQSPSVSVSPGQTARITCSGDALPEQYAYWYQQKPGQAPVLVIYKDSERPSGIPERFSGSGSGTTVTLTITGVQAEDEADYYCQSADNSGTYEVFGTGTKVTVL
- EC50 [13]: > 1.4 µg/mL
- EC50 [14]: > 5.6 µg/mL
- PRNT Emax, CPXV MV+C' [15]: 86%
- PRNT IC50, CPXV MV+C' [15]: 4 µg/mL
- PRNT Emax, MPXV MV [16]: 84%
- PRNT Emax, MPXV MV+C' [16]: 92%
- PRNT IC50, MPXV MV [16]: 1.6 µg/mL
- PRNT IC50, MPXV MV+C' [16]: 0.8 µg/mL
- EC50 [17]: 0.11 µg/mL
- EC50 [18]: 0.04 µg/mL

B7: VACV-309 (antibody, V domains shown)
VH: EVQLLESGGGLVQPGESLKLSCAASGFTFSSYAMNWVRQAPGKGLEWVSGISGSGGSTYYADSVKGRFTVSRDNSKNTLYLQMNSLRAEDTAVYYCAKDNNYYYYGMDVWGQGTTVTVSS
VL: AIQMTQSPSSLSASVGDRVTITCRASQGIRNDLGWYQQKPGKAPKLLIYAASSLQSGVPSRFSGSGSGTDFTLTISSLQPEDFATYYCLQDYNYPRMFGQGTKVDIK
- EC50 [10]: 0.001 µg/mL
- EC50 [11]: 0.005 µg/mL
- EC50 [12]: 0.005 µg/mL

B8: VACV-308 (antibody, V domains shown)
VH: QVQLVQSGAEVKKPGSSVKVSCKGSGDSFRSYAISWVRQAPGQGLEWMGGIIPRFGTTNYAQKFQDRVTITADKSTTTAYMELRSLKCEDTGVYYCARPQSAYDFGPFDHWGQGTLVTVSS
VL: SYELTQPPSLSVAPGKTARITCGGDNIGSKGVHWYQQKPGQAPVVVISYDSDRPSGIPERFSGSNSGDTATLTISRVEAGDEADYYCHVWHTTTDHYVFGTGTKVTVL
- EC50 [19]: 0.002 µg/mL
- EC50 [20]: 0.003 µg/mL
- EC50 [21]: 0.006 µg/mL

B9: MPXV-87 (antibody, V domains shown)
V domain 1: QVQLVQSGAEVKKPGASVKVSCKASGYTFTSHGIIWVRQAPGQGLEWMGWISVYNDNTNSAQKFQDRVTMTTATSTSTAYMELRSLRSDDTAVYYCARSSSGPRYYYYGMDVWGQGTTSP
V domain 2: QSVVTQPPSVSGAPGQRVTISCTGSSSNIGAGYAVHWYYQLPGIAPKLLIFGNNNRPSGVPDRFSGSKSGTSASLAITGLQAEDEADYYCQSYDSSLSGWVFGGGTQVTVL
- EC50 [22]: 0.003 µg/mL
- EC50 [23]: 0.001 µg/mL
- PRNT Emax, CPXV MV [24]: 63%
- PRNT Emax, CPXV MV+C' [24]: 82%
- PRNT IC50, CPXV MV [24]: 0.8 µg/mL
- PRNT IC50, CPXV MV+C' [24]: 0.6 µg/mL
- PRNT Emax, MPXV MV [25]: 57%
- PRNT Emax, MPXV MV+C' [25]: 65%
- PRNT IC50, MPXV MV [25]: 50 µg/mL
- PRNT IC50, MPXV MV+C' [25]: 50 µg/mL
- EC50 [26]: 0.3 µg/mL
